For assay [1], the target named is T1, Human hepcidin peptide (hepcidin-25) (human).
T1 sequence (peptide): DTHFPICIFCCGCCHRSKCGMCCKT
Put plainly: Biacore (SPR); upper end of the estimated range 7-8 pM.

The target is the same in assay [2]. Put plainly: Biacore (SPR); lower end of the estimated range 7-8 pM.
The target is the same in assay [3]. Put plainly: method not stated.
Assay [4] has as its target Hepcidin MAb 583. Put plainly: competitive ELISA on mAb 583 coated wells; competitor biotinylated hepcidin-25 tracer; standard at 100 ng/mL. A general note: An ELISA detects its analyte on a solid surface through an enzyme-linked reagent.
Assay [5] addresses Hepcidin MAb 583. Put plainly: competitive ELISA on mAb 583 coated wells; competitor biotinylated hepcidin-25 tracer; standard at 2.5 ng/mL.
The target of assay [6] is Hepcidin MAb 583. Put plainly: competitive ELISA on mAb 583 coated wells; competitor biotinylated hepcidin-25 tracer; standard at 0 ng/mL.
Chain of Hepcidin MAb 583 (heavy, as listed by the source, chain 1 of 2): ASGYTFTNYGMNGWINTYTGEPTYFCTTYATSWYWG
Chain of Hepcidin MAb 583 (light, as listed by the source, chain 2 of 2): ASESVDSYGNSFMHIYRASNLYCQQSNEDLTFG
The target in assay [7] is Hepcidin MAb 583. Put plainly: competitive ELISA on mAb 583 coated wells; competitor biotinylated hepcidin-25 tracer; standard at 10 ng/mL.
In assay [8] the target is Hepcidin MAb 583. Put plainly: competitive ELISA on mAb 583 coated wells; competitor biotinylated hepcidin-25 tracer; standard at 50 ng/mL.
For assay [9], the target named is Hepcidin MAb 583. Put plainly: competitive ELISA on mAb 583 coated wells; competitor biotinylated hepcidin-25 tracer; standard at 25 ng/mL.
For assay [10], the target named is Hepcidin MAb 583. Put plainly: competitive ELISA on mAb 583 coated wells; competitor biotinylated hepcidin-25 tracer; standard at 1000 ng/mL.
Assay [11] addresses Hepcidin MAb 583. Put plainly: competitive ELISA on mAb 583 coated wells; competitor biotinylated hepcidin-25 tracer; standard at 250 ng/mL.

Data on 2 molecules can be found in patent US20200300873A1.

Usually Kd stands for the concentration at which binding is half-saturated.

B1: Hepcidin MAb 583 (antibody, from a related filing, V domains shown, part only)
VH: QIQLVQSGPELKKPGETVKISCKASGYTFTNYGMNWVKQAPGKGLKWMGWINTYTGEPTYADDFKGRFAFSLETSASTAYLQINNLKNEDTATYFCTTYATSWYWGQG
VL: DIVLTQSPASLAVSLGQRATISCRASESVDSYGNSFMHWYQQKPGQPPKLLIYRASNLESGIPARFSGSGSRTDFTLTINPVEADDVATYYCQQSNEDLTFG
In the case of B1, the Kd in [1] and in [2] was 7 to 8 pM throughout. Moreover, the affinity (unit not given) in [3] was 5.16e-11.
For the molecule DTHFPICIFCCGCCHRSKCGMCCKT [Human hepcidin peptide (hepcidin-25)], the Absorbance (450 nm) with Hepcidin MAb 583 [4] stood at 0.24 OD 450 nm; with Hepcidin MAb 583 [5], 2.14 OD 450 nm; with Hepcidin MAb 583 [6] it was 2.36 OD 450 nm; with Hepcidin MAb 583 [7], 1.61 OD 450 nm; in the assay with Hepcidin MAb 583 [8], 0.47 OD 450 nm; with Hepcidin MAb 583 [9], 0.9 OD 450 nm. Further, the Absorbance (450 nm) with Hepcidin MAb 583 [10] was found to be 0.03 OD 450 nm; with Hepcidin MAb 583 [11] it was 0.1 OD 450 nm.
